Assay results: PMC3777949, “Dimerization Mediates Thermo-Adaptation, Substrate Affinity and Transglycosylation in a Highly Thermostable Maltogenic Amylase of Geobacillus thermoleovorans” (PLoS ONE, 2013)

Columns and labels:
[1] = target: Gt-Mamy D109A mutant (Geobacillus thermoleovorans)
[2] = target: maltogenic amylase of Geobacillus thermoleovorans (Gt-Mamy), recombinant wild type (Geobacillus thermoleovorans); assay: SEC; Sephacryl S-200 high resolution column, 100 mM sodium phosphate pH 7 with 50 mM NaCl, 0.3 ml/min; masses from a plot of molecular weight vs Ve/Vo against standards

| Ea required for thermal denaturation [1] [kcal/mol] | T1/2 of thermal inactivation at 80, 90 and 100°C [1] [h] | stoichiometry N [2] | Substance |
| --- | --- | --- | --- |
| 33.8 | 44.6 |  | Gt-Mamy D109A mutant (enzyme) |
|  |  | 2 | maltogenic amylase of Geobacillus thermoleovorans (Gt-Mamy), recombinant wild type (enzyme) |
